Results published in patent publication US20260250352A1.
Like-named read-outs stand apart in the source and are kept apart here.

B1: Anti-APRIL mAb based on the published VIS649 (sibeprenlimab) sequence (antibody, INN chains, looked up, V domains shown)
VH: QVQLVQSGAEVKKPGASVKVSCKASGYTFTDYTIHWVRQATGQGLEWMGWIYPLRGSINYAQKFQGRVTMTADKSISTVYMELSSLRSEDTAVYFCARHGAYYSNAFDYWGQGTLVTVSS
VL: EIVMTQSPATLSVSPGERATLSCRASESVDNDGIRFLHWYQQKPGQAPRLLIYRASTRATGIPARFSGSGSRTEFTLTISSLQSEDFAVYYCQQSNKDPYTFGGGTKVEIK
B2: Belimumab (antibody, INN chains, looked up, V domains shown)
VH: QVQLQQSGAEVKKPGSSVRVSCKASGGTFNNNAINWVRQAPGQGLEWMGGIIPMFGTAKYSQNFQGRVAITADESTGTASMELSSLRSEDTAVYYCARSRDLLLFPHHALSPWGRGTMVTVSS
VL: SSELTQDPAVSVALGQTVRVTCQGDSLRSYYASWYQQKPGQAPVLVIYGKNNRPSGIPDRFSGSSSGNTASLTITGAQAEDEADYYCSSRDSSGNHWVFGGGTELTVLG
B3: 26 TACI CRD2-Fc (Fc fusion)
chain: SLSCRKEQGEYYDHLLRDCISCASICGQHPKQCADFCENKLRSGSGGGGSEPKSSDKTHTCPPCPAPEAEGAPSVFLFPPKPKDTLMISRTPEVTCVVVDVSHEDPEVKFNWYVDGVEVHNAKTKPREEQYNSTYRVVSVLTVLHQDWLNGKEYKCKVSNKALPAPIEKTISKAKGQPREPQVYTLPPSRDELTKNQVSLTCLVKGFYPSDIAVEWESNGQPENNYKTTPPVLDSDGSFFLYSKLTVDKSRWQQGNVFSCSVMHEALHNHYTQKSLSLSPG
B4: Anti-APRIL mAb based on the published BION-1301 sequence (antibody, INN chains, looked up, V domains shown)
VH: QVQLVQSGAEVKKPGASVKVSCKASGYTFTDYTIHWVRQATGQGLEWMGWIYPLRGSINYAQKFQGRVTMTADKSISTVYMELSSLRSEDTAVYFCARHGAYYSNAFDYWGQGTLVTVSS
VL: EIVMTQSPATLSVSPGERATLSCRASESVDNDGIRFLHWYQQKPGQAPRLLIYRASTRATGIPARFSGSGSRTEFTLTISSLQSEDFAVYYCQQSNKDPYTFGGGTKVEIK
B5: Telitacicept, O14836 13-118 (Fc fusion, not shown: a dimerising Fc or GST)
chain: SRVDQEERFPQGLWTGVAMRSCPEEQYWDPLLGTCMSCKTICNHQSQRTCAAFCRSLSCRKEQGKFYDHLLRDCISCASICGQHPKQCAYFCENKLRSPVNLPPEL
modifications: here or on the partner: The drug is a disulfide-linked Fc-fusion homodimer. Only one TACI ECD arm is given, and the Fc is left out.

What was measured:
Test in all cases: cell-based or functional assay
[1] = target: recombinant human APRIL (human) (UniProt O75888)
[2] = target: single chain BAFF-APRIL-APRIL heterotrimer (BAA) (human) (UniProt Q9Y275)
[3] = target: APRIL + BAFF in combination (human)
[4] = target: APRIL + BAFF in combination (human); remark: listed apart in the source

Chain of single chain BAFF-APRIL-APRIL heterotrimer (BAA) (human) (Q9Y275 other isoform, or with tags, fused parts or gaps limits assumed): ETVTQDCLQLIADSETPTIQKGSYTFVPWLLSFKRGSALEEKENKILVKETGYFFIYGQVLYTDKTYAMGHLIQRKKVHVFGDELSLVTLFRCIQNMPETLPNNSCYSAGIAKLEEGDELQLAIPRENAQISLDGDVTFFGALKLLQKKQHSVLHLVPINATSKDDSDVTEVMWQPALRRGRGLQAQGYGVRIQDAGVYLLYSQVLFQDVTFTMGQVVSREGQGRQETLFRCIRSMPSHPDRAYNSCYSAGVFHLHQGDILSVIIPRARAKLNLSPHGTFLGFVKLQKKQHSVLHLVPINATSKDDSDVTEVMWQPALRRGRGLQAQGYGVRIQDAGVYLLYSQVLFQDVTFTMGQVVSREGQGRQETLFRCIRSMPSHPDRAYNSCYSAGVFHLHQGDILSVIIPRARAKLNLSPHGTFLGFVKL

Binder	IC50, TACI/Jurkat/NF-kB reporter [1] [nM]	IC50, Jurkat/NF-kB/TACI reporter [1] [nM]	IC50, Jurkat/NF-kB/TACI reporter [3] [nM]	IC50, Jurkat/NF-kB/TACI reporter [4] [nM]	IC50, TACI/Jurkat/NF-kB reporter [4] [nM]	other results
B1	5.1					IC50, TACI/Jurkat/NF-kB reporter [2]: 0.144 nM
B2		215000	> 100			IC50 relative to TACI 30-110-Fc [1]: 55.8
B3				1.39	3.1	fold better IC50 than anti-APRIL mAb plus belimumab [4]: 3.5 fold; fold lower IC50 than telitacicept [4]: > 50 fold
B4	21.9	4.9	> 100			IC50, TACI/Jurkat/NF-kB reporter [3]: > 200 nM
B5				16.8	> 200	
